The subject of the series is Escherichia coli TOP10. In words: shrunken log2 fold change of peptide-encoding DNA abundance (4.5 h post-induction vs induction); higher = less antimicrobial activity (less host growth inhibition). As to conditions: time post-induction: 4.5 h; library: site-saturation at positions 5, 18, 19, 20.
For RRIRVRPPRLPRPRPRPSRFPRP, the “shrunken log2 fold change” value is -0.0691.

For RRIRERPPRLPRPRPRPCMYPRP, the “shrunken log2 fold change” value is -0.201.

RRIRHRPPRLPRPRPRPVRDPRP: the “shrunken log2 fold change” value was determined as 0.298.

Turning to RRIRWRPPRLPRPRPRPTFSPRP, the “shrunken log2 fold change” value was -0.0911.

Consider RRIRCRPPRLPRPRPRPREIPRP, for which the “shrunken log2 fold change” value turned out to be 0.218.

As to RRIRPRPPRLPRPRPRPCPHPRP, the “shrunken log2 fold change” value is -0.81.

As to RRIRHRPPRLPRPRPRPPNDPRP, the “shrunken log2 fold change” value was -0.471.

As to RRIRGRPPRLPRPRPRPAELPRP, the “shrunken log2 fold change” value came to 0.472.

As to RRIRSRPPRLPRPRPRPCPFPRP, the “shrunken log2 fold change” value was -0.138.

Consider RRIRHRPPRLPRPRPRPGFHPRP, for which the “shrunken log2 fold change” value is -0.323.

On to RRIRDRPPRLPRPRPRPSDIPRP, for which the “shrunken log2 fold change” value was -0.0124.

Take RRIRDRPPRLPRPRPRPPYGPRP: the “shrunken log2 fold change” value is -0.0609.

As for RRIRFRPPRLPRPRPRPQMYPRP, the “shrunken log2 fold change” value was -0.725.

With RRIRTRPPRLPRPRPRPYLHPRP, the “shrunken log2 fold change” value was -0.367.

As to RRIRRRPPRLPRPRPRPQRRPRP, the “shrunken log2 fold change” value amounted to 0.482.

As to RRIRNRPPRLPRPRPRPCPWPRP, the “shrunken log2 fold change” value is -0.141.

With RRIRDRPPRLPRPRPRPIVMPRP, the “shrunken log2 fold change” value is -0.0257.

For the sequence RRIRVRPPRLPRPRPRPKWCPRP, the “shrunken log2 fold change” value came out at 0.289.

Regarding RRIRCRPPRLPRPRPRPWVPPRP, the “shrunken log2 fold change” value is -0.423.

Consider RRIRLRPPRLPRPRPRPEGIPRP, for which the “shrunken log2 fold change” value was -0.229.

Consider RRIRCRPPRLPRPRPRPITGPRP, for which the “shrunken log2 fold change” value is -0.213.

For the sequence RRIRQRPPRLPRPRPRPEIWPRP, the “shrunken log2 fold change” value was 0.618.

For the sequence RRIRHRPPRLPRPRPRPLMWPRP, the “shrunken log2 fold change” value was -0.218.

Turning to RRIRMRPPRLPRPRPRPAGWPRP, the “shrunken log2 fold change” value is 1.37.

For RRIRDRPPRLPRPRPRPNEKPRP, the “shrunken log2 fold change” value was -0.0281.

Regarding RRIRYRPPRLPRPRPRPALIPRP, the “shrunken log2 fold change” value is -0.273.

For the sequence RRIRYRPPRLPRPRPRPYFSPRP, the “shrunken log2 fold change” value is -1.16.

With RRIRQRPPRLPRPRPRPNWTPRP, the “shrunken log2 fold change” value is -0.00963.

Regarding RRIRERPPRLPRPRPRPNCTPRP, the “shrunken log2 fold change” value was -0.102.

On to RRIRVRPPRLPRPRPRPSGEPRP, for which the “shrunken log2 fold change” value was 0.0818.

As for RRIRARPPRLPRPRPRPYFLPRP, the “shrunken log2 fold change” value is -0.557.

In the case of RRIRTRPPRLPRPRPRPQWLPRP, the “shrunken log2 fold change” value was -0.455.

With RRIRRRPPRLPRPRPRPYLYPRP, the “shrunken log2 fold change” value is -0.362.

Turning to RRIRLRPPRLPRPRPRPTKRPRP, the “shrunken log2 fold change” value is 0.00619.

Regarding RRIRCRPPRLPRPRPRPAGLPRP, the “shrunken log2 fold change” value amounted to 0.206.

For RRIRFRPPRLPRPRPRPTCFPRP, the “shrunken log2 fold change” value was -0.157.

Consider RRIRFRPPRLPRPRPRPNGEPRP, for which the “shrunken log2 fold change” value came out at 0.0684.

Consider RRIRFRPPRLPRPRPRPAVMPRP, for which the “shrunken log2 fold change” value was determined as 0.248.

On to RRIRRRPPRLPRPRPRPTEQPRP, for which the “shrunken log2 fold change” value is -0.0468.

On to RRIRYRPPRLPRPRPRPCTYPRP, for which the “shrunken log2 fold change” value is -0.194.

With RRIRLRPPRLPRPRPRPYQMPRP, the “shrunken log2 fold change” value was -0.188.

Take RRIRIRPPRLPRPRPRPTAMPRP: the “shrunken log2 fold change” value is -0.191.

Consider RRIRLRPPRLPRPRPRPHCTPRP, for which the “shrunken log2 fold change” value is -0.533.

Regarding RRIRTRPPRLPRPRPRPFNNPRP, the “shrunken log2 fold change” value is -0.318.

For RRIRLRPPRLPRPRPRPNHYPRP, the “shrunken log2 fold change” value is -0.505.

On to RRIRYRPPRLPRPRPRPPKFPRP, for which the “shrunken log2 fold change” value was -0.0892.

For the sequence RRIRFRPPRLPRPRPRPEVPPRP, the “shrunken log2 fold change” value is -0.0248.

As to RRIRVRPPRLPRPRPRPVGMPRP, the “shrunken log2 fold change” value was -0.0289.

For RRIRMRPPRLPRPRPRPRIRPRP, the “shrunken log2 fold change” value came out at 0.79.

Consider RRIRGRPPRLPRPRPRPPVPPRP, for which the “shrunken log2 fold change” value is 0.82.

Take RRIRLRPPRLPRPRPRPPMDPRP: the “shrunken log2 fold change” value turned out to be 0.0462.

Take RRIRVRPPRLPRPRPRPAMPPRP: the “shrunken log2 fold change” value stood at 0.0637.

RRIRRRPPRLPRPRPRPATIPRP: the “shrunken log2 fold change” value was -0.0623.

In the case of RRIRSRPPRLPRPRPRPIYHPRP, the “shrunken log2 fold change” value was -0.884.

As for RRIRPRPPRLPRPRPRPPDLPRP, the “shrunken log2 fold change” value turned out to be 0.366.

Regarding RRIRMRPPRLPRPRPRPIFAPRP, the “shrunken log2 fold change” value stood at 0.556.

Turning to RRIRQRPPRLPRPRPRPWNGPRP, the “shrunken log2 fold change” value was -0.0018.

On to RRIRHRPPRLPRPRPRPMGGPRP, for which the “shrunken log2 fold change” value was determined as 0.0348.

In the case of RRIRGRPPRLPRPRPRPYWMPRP, the “shrunken log2 fold change” value was -0.34.

RRIRDRPPRLPRPRPRPPICPRP: the “shrunken log2 fold change” value was -0.224.

With RRIRKRPPRLPRPRPRPSRAPRP, the “shrunken log2 fold change” value came to 0.521.

Consider RRIRMRPPRLPRPRPRPLATPRP, for which the “shrunken log2 fold change” value was 2.2.

RRIRQRPPRLPRPRPRPNMMPRP: the “shrunken log2 fold change” value is -0.442.

On to RRIRHRPPRLPRPRPRPETGPRP, for which the “shrunken log2 fold change” value is -0.0213.

For RRIRYRPPRLPRPRPRPSVGPRP, the “shrunken log2 fold change” value was -0.124.

Regarding RRIRARPPRLPRPRPRPYEQPRP, the “shrunken log2 fold change” value amounted to 0.0674.

For RRIRTRPPRLPRPRPRPVTAPRP, the “shrunken log2 fold change” value was -0.0612.

For the sequence RRIRCRPPRLPRPRPRPWLKPRP, the “shrunken log2 fold change” value is -0.133.

As for RRIRGRPPRLPRPRPRPEMPPRP, the “shrunken log2 fold change” value amounted to 1.48.

On to RRIRKRPPRLPRPRPRPANPPRP, for which the “shrunken log2 fold change” value turned out to be 0.071.

Take RRIRWRPPRLPRPRPRPYGEPRP: the “shrunken log2 fold change” value was -0.0723.

With RRIRPRPPRLPRPRPRPNCPPRP, the “shrunken log2 fold change” value is -0.0126.

As to RRIRRRPPRLPRPRPRPFQFPRP, the “shrunken log2 fold change” value was -0.0742.

On to RRIRERPPRLPRPRPRPVAKPRP, for which the “shrunken log2 fold change” value was 0.197.

Take RRIRIRPPRLPRPRPRPEYWPRP: the “shrunken log2 fold change” value was -0.0686.

With RRIRYRPPRLPRPRPRPRWYPRP, the “shrunken log2 fold change” value is -1.15.

As to RRIRARPPRLPRPRPRPPRQPRP, the “shrunken log2 fold change” value turned out to be 0.769.

RRIRHRPPRLPRPRPRPHFHPRP: the “shrunken log2 fold change” value was -0.648.

For RRIRNRPPRLPRPRPRPMIHPRP, the “shrunken log2 fold change” value was -0.136.

With RRIRPRPPRLPRPRPRPRHDPRP, the “shrunken log2 fold change” value is 0.186.

Consider RRIRYRPPRLPRPRPRPMCQPRP, for which the “shrunken log2 fold change” value was -0.394.

On to RRIRWRPPRLPRPRPRPYIKPRP, for which the “shrunken log2 fold change” value is -0.736.

As for RRIRTRPPRLPRPRPRPVGPPRP, the “shrunken log2 fold change” value is -0.006.

As to RRIRGRPPRLPRPRPRPLSKPRP, the “shrunken log2 fold change” value worked out at 0.425.

With RRIRLRPPRLPRPRPRPLILPRP, the “shrunken log2 fold change” value is -0.429.

RRIRARPPRLPRPRPRPGARPRP: the “shrunken log2 fold change” value came out at 0.59.

Consider RRIRSRPPRLPRPRPRPAYAPRP, for which the “shrunken log2 fold change” value was 0.0867.

For the sequence RRIRCRPPRLPRPRPRPLHNPRP, the “shrunken log2 fold change” value is -0.264.

Regarding RRIRFRPPRLPRPRPRPMRTPRP, the “shrunken log2 fold change” value came to 0.547.

Consider RRIRERPPRLPRPRPRPRIRPRP, for which the “shrunken log2 fold change” value stood at 0.0747.

For RRIRHRPPRLPRPRPRPQWHPRP, the “shrunken log2 fold change” value is -0.299.

With RRIRQRPPRLPRPRPRPKYEPRP, the “shrunken log2 fold change” value stood at 0.0304.

Regarding RRIRMRPPRLPRPRPRPWECPRP, the “shrunken log2 fold change” value stood at 1.1.

RRIRDRPPRLPRPRPRPWFLPRP: the “shrunken log2 fold change” value is 0.109.

Take RRIRQRPPRLPRPRPRPPPSPRP: the “shrunken log2 fold change” value is 0.731.

For RRIRSRPPRLPRPRPRPKELPRP, the “shrunken log2 fold change” value was determined as 0.0175.

As to RRIRQRPPRLPRPRPRPFTTPRP, the “shrunken log2 fold change” value is -0.0246.

Turning to RRIRNRPPRLPRPRPRPWTTPRP, the “shrunken log2 fold change” value was -0.0122.

In the case of RRIRKRPPRLPRPRPRPTHIPRP, the “shrunken log2 fold change” value was 0.328.

On to RRIRNRPPRLPRPRPRPHYAPRP, for which the “shrunken log2 fold change” value is -0.0337.

On to RRIRLRPPRLPRPRPRPCCKPRP, for which the “shrunken log2 fold change” value was -0.102.

In the case of RRIRNRPPRLPRPRPRPDKHPRP, the “shrunken log2 fold change” value was -0.0308.

Regarding RRIRPRPPRLPRPRPRPAETPRP, the “shrunken log2 fold change” value was -0.0458.

RRIRERPPRLPRPRPRPYTVPRP: the “shrunken log2 fold change” value was -0.74.

In the case of RRIRTRPPRLPRPRPRPVYGPRP, the “shrunken log2 fold change” value was -0.167.

Turning to RRIRHRPPRLPRPRPRPLGRPRP, the “shrunken log2 fold change” value is 0.218.

Turning to RRIRQRPPRLPRPRPRPKNCPRP, the “shrunken log2 fold change” value is -0.0633.

For RRIRARPPRLPRPRPRPTNTPRP, the “shrunken log2 fold change” value came out at 0.0887.

Turning to RRIRLRPPRLPRPRPRPGAKPRP, the “shrunken log2 fold change” value is -0.548.

For RRIRPRPPRLPRPRPRPWKKPRP, the “shrunken log2 fold change” value is -0.0306.

Consider RRIRYRPPRLPRPRPRPPQNPRP, for which the “shrunken log2 fold change” value came out at 0.191.

Consider RRIRNRPPRLPRPRPRPVEVPRP, for which the “shrunken log2 fold change” value was -0.296.

Consider RRIRNRPPRLPRPRPRPLFGPRP, for which the “shrunken log2 fold change” value stood at 0.0228.

For the sequence RRIRVRPPRLPRPRPRPHCMPRP, the “shrunken log2 fold change” value was -0.414.

For the sequence RRIRERPPRLPRPRPRPQSWPRP, the “shrunken log2 fold change” value was determined as 0.104.

Regarding RRIRWRPPRLPRPRPRPNRSPRP, the “shrunken log2 fold change” value is -0.0777.

For the sequence RRIRSRPPRLPRPRPRPRCWPRP, the “shrunken log2 fold change” value was 0.329.

For the sequence RRIRVRPPRLPRPRPRPMELPRP, the “shrunken log2 fold change” value is -0.135.

For the sequence RRIRMRPPRLPRPRPRPFWSPRP, the “shrunken log2 fold change” value was -0.123.

As for RRIRFRPPRLPRPRPRPGKMPRP, the “shrunken log2 fold change” value is -0.0519.

Take RRIRQRPPRLPRPRPRPWNFPRP: the “shrunken log2 fold change” value was -0.15.

For RRIRDRPPRLPRPRPRPLNSPRP, the “shrunken log2 fold change” value was determined as 0.0283.

Turning to RRIRHRPPRLPRPRPRPQCVPRP, the “shrunken log2 fold change” value was 0.00938.

Turning to RRIRLRPPRLPRPRPRPVKCPRP, the “shrunken log2 fold change” value is -0.122.

Consider RRIRCRPPRLPRPRPRPENSPRP, for which the “shrunken log2 fold change” value was -0.0484.
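Further: peptides expressed intracellularly from a pBAD plasmid library in pooled LB shake-flask culture, induced with 0.3% L-arabinose, DNA abundance read by NGS, three biological replicates, DESeq2 with apeglm shrinkage.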
